Experimental data reported in the RNAGym collection of RNA variant scans (doi:10.1093/molbev/msab373).

B1: Azoarcus group I ribozyme (parent)
chain: GUGCCUUGCGCCGGGAAACCACGCAAGGGAUGGUGUCAAAUUCGGCGAAACCUAAGCGCCCGCCCGGGCGUAUGGCAACGCCGAGCCAAGCUUCGGCGCCUGCGCCGAUGAAGGUGUAGAGACUAGACGGCACCCACCUAAGGCAAACGCUAUGGUGAAGGCAUAGUCCAGGGAGUGGCGAAAGUCACACAAACCGG

Variants of: B1
Test: reverse-splicing fitness (ratio to wild type); higher = more active; in vitro selection; Mg2+ level not given
How it was run: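 An in vitro group I ribozyme library with randomized positions was T7-transcribed and gel-purified. In triplicate, 10 pmol RNA in EPPS pH 7.5 was reacted with 50 pmoles of a 30-nt RNA substrate for 1 h at 37 °C across several added MgCl2 levels (1–48 mM), then stopped with EDTA. Products were reverse transcribed from a substrate-complementary primer, PCR-amplified and sequenced (HiSeq 4000). Fitness is a variant's read proportion after selection over that before, normalised to wild type.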

Compared with GUGCCUUGCGCCGGGAAACCACGCAAGGGAUGGUGUCAAAUUCGGCGAAACCUAAGCGCCCGCCCGGGCGUAUGGCAACGCAGAGCCAAGCUUCGGCGCCUGCGCCGAUGUAGGUGUAGUGACUAGACGGCACCCACCUAAGGCCAACGCUAUGGUGAAGGCAUAGUCCAGGGAGUGGCGAAAGUCACACAAACCGG, GUGCCUUGCGCCGGGAAACCACGCAAGGGAUGGUGUCAAAUUCGGCGAAACCUAAGCGCCCGCCCGGGCGUAUGGCAACGCAGAGCCAAGCUUCGGCGCCUGCGCCGAUGUAGGUGUAGGGACUAGACGGCACCCACCUAAGGCAAACGCUAUGGUGAAGGCAUAGUCUAGGGAGCGGCGAAAGUCACACAAACCGG is lower in reverse-splicing fitness: 0.0205 for the first, 0.0195 for the second.

Going from GUGCCUUGCGCCGGGAAACCACGCAAGGGAUGGUGUCAAAUUCGGCGAAACCUAAGCGCCCGCCCGGGCGUAUGGCAACGCAGAGCCAAGCUUCGGCGCCUGCGCCGAUGUAGGUGUAGGGACUAGACGGCACCCACCUAAGGCAAACGCUAUGGUGAAGGCAUAGUCUAGGGAGGGGCGAAAGUCACACAAACCGG to GUGCCUUGCGCCGGGAAACCACGCAAGGGAUGGUGUCAAAUUCGGCGAAACCUAAGCGCCCGCCCGGGCGUAUGGCAACGCAGAGCCAAGCUUCGGCGCCUGCGCCGAUGUAGGUGUAGGGACUAGACGGCACCCACCUAAGGCAAACGCUAUGGUGAAGGCAUAGUCUAGGGAGAGGCGAAAGUCACACAAACCGG, the reverse-splicing fitness rises from 0.00615 to 0.0201.

Going from GUGCCUUGCGCCGGGAAACCACGCAAGGGAUGGUGUCAAAUUCGGCGAAACCUAAGCGCCCGCCCGGGCGUAUGGCAACGCAGAGCCAAGCUUCGGCGCCUGCGCCGAUGUAGGUGUAGGGACUAGACGGCACCCACCUAAGGCAAACGCUAUGGUGAAGGCAUAGUCGAGGGAGUGGCGAAAGUCACACAAACCGG to GUGCCUUGCGCCGGGAAACCACGCAAGGGAUGGUGUCAAAUUCGGCGAAACCUAAGCGCCCGCCCGGGCGUAUGGCAACGCAGAGCCAAGCUUCGGCGCCUGCGCCGAUGUAGGUGUAGGGACUAGACGGCACCCACCUAAGGCAAACGCUAUGGUGAAGGCAUAGUCUAGGGAGUGGCGAAAGUCACACAAACCGG, the reverse-splicing fitness falls from 0.0106 to 0.00987.

First: GUGCCUUGCGCCGGGAAACCACGCAAGGGAUGGUGUCAAAUUCGGCGAAACCUAAGCGCCCGCCCGGGCGUAUGGCAACGCAGAGCCAAGCUUCGGCGCCUGCGCCGAUGUAGGUGUAGUGACUAGACGGCACCCACCUAAGGCCAACGAUAUGGUGAAGGCAUAGUCUAGGGAGAGGCGAAAGUCACACAAACCGG
Second: GUGCCUUGCGCCGGGAAACCACGCAAGGGAUGGUGUCAAAUUCGGCGAAACCUAAGCGCCCGCCCGGGCGUAUGGCAACGCAGAGCCAAGCUUCGGCGCCUGCGCCGAUGUAGGUGUAGUGACUAGACGGCACCCACCUAAGGCCAACGAUAUGGUGAAGGCAUAGUCUAGGGAGGGGCGAAAGUCACACAAACCGG
The reverse-splicing fitness of the first is higher: 0.00277 for the first, 0.00186 for the second.

Going from GUGCCUUGCGCCGGGAAACCACGCAAGGGAUGGUGUCAAAUUCGGCGAAACCUAAGCGCCCGCCCGGGCGUAUGGCAACGCAGAGCCAAGCUUCGGCGCCUGCGCCGAUGUAGGUGUAGUGACUAGACGGCACCCACCUAAGGCCAACGAUAUGGUGAAGGCAUAGUCUAGGGAGCGGCGAAAGUCACACAAACCGG to GUGCCUUGCGCCGGGAAACCACGCAAGGGAUGGUGUCAAAUUCGGCGAAACCUAAGCGCCCGCCCGGGCGUAUGGCAACGCAGAGCCAAGCUUCGGCGCCUGCGCCGAUGUAGGUGUAGUGACUAGACGGCACCCACCUAAGGCCAACGAUAUGGUGAAGGCAUAGUCGAGGGAGAGGCGAAAGUCACACAAACCGG, the reverse-splicing fitness rises from 0.00287 to 0.00303.

First: GUGCCUUGCGCCGGGAAACCACGCAAGGGAUGGUGUCAAAUUCGGCGAAACCUAAGCGCCCGCCCGGGCGUAUGGCAACGCAGAGCCAAGCUUCGGCGCCUGCGCCGAUGUAGGUGUAGUGACUAGACGGCACCCACCUAAGGCCAACGAUAUGGUGAAGGCAUAGUCGAGGGAGGGGCGAAAGUCACACAAACCGG
Second: GUGCCUUGCGCCGGGAAACCACGCAAGGGAUGGUGUCAAAUUCGGCGAAACCUAAGCGCCCGCCCGGGCGUAUGGCAACGCAGAGCCAAGCUUCGGCGCCUGCGCCGAUGUAGGUGUAGUGACUAGACGGCACCCACCUAAGGCCAACGAUAUGGUGAAGGCAUAGUCGAGGGAGCGGCGAAAGUCACACAAACCGG
The reverse-splicing fitness of the first is lower: 0.0026 for the first, 0.00303 for the second.

Compared with GUGCCUUGCGCCGGGAAACCACGCAAGGGAUGGUGUCAAAUUCGGCGAAACCUAAGCGCCCGCCCGGGCGUAUGGCAACGCAGAGCCAAGCUUCGGCGCCUGCGCCGAUGUAGGUGUAGUGACUAGACGGCACCCACCUAAGGCAAACGCUAUGGUGAAGGCAUAGUCCAGGGAGUGGCGAAAGUCACACAAACCGG, GUGCCUUGCGCCGGGAAACCACGCAAGGGAUGGUGUCAAAUUCGGCGAAACCUAAGCGCCCGCCCGGGCGUAUGGCAACGCAGAGCCAAGCUUCGGCGCCUGCGCCGAUGUAGGUGUAGGGACUAGACGGCACCCACCUAAGGCAAACGCUAUGGUGAAGGCAUAGUCGAGGGAGCGGCGAAAGUCACACAAACCGG is higher in reverse-splicing fitness: 0.0228 for the first, 0.0234 for the second.

Work on GUGCCUUGCGCCGGGAAACCACGCAAGGGAUGGUGUCAAAUUCGGCGAAACCUAAGCGCCCGCCCGGGCGUAUGGCAACGCAGAGCCAAGCUUCGGCGCCUGCGCCGAUGUAGGUGUAGGGACUAGACGGCACCCACCUAAGGCAAACGCUAUGGUGAAGGCAUAGUCGAGGGAGAGGCGAAAGUCACACAAACCGG yielded a reverse-splicing fitness of 0.0219.
